Data on one protein can be found in paper PMC7181641, “Aspartate aminotransferase Rv3722c governs aspartate-dependent nitrogen metabolism in Mycobacterium tuberculosis” (Nature Communications, 2020).

The data set deals with the molecule itself. Kind of data set: crystal structure; Rv3722c (~40 mg/mL) co-crystallised with 5 mM L-glutamic acid or 10 mM L-kynurenine, sitting drop vapor diffusion at 17 °C.

B1: Rv3722c (aspartate aminotransferase of Mycobacterium tuberculosis) (enzyme)
chain: SFDSLSPQELAALHARHQQDYAALQGMKLALDLTRGKPSAEQLDLSNQLLSLPGDDYRDPEGTDTRNYGGQHGLPGLRAIFAELLGIAVPNLIAGNNSSLELMHDIVAFSMLYGGVDSPRPWIQEQDGIKFLCPVPGYDRHFAITETMGIEMIPIPMLQDGPDVDLIEELVAVDPAIKGMWTVPVFGNPSGVTYSWETVRRLVQMRTAAPDFRLFWDNAYAVHTLTLDFPRQVDVLGLAAKAGNPNRPYVFASTSKITFAGGGVSFFGGSLGNIAWYLQYAGKKSIGPDKVNQLRHLRFFGDADGVRLHMLRHQQILAPKFALVAEVLDQRLSESKIASWTEPKGGYFISLDVLPGTARRTVALAKDVGIAVTEAGASFPYRKDPDDKNIRIAPSFPSVPDLRNAVDGLATCALLAATETLLNQGLASSAPNVR
notes: also called AspAT
As to B1, the binding result is “binds”.
